{
  "source": "patent US20240424106A1",
  "about": "“CONJUGATE PHARMACEUTICAL PREPARATION, PREPARATION METHOD THEREFOR AND USE THEREOF” (COHERENT BIOPHARMA (SUZHOU) LIMITED, priority 2021, published 2024)",
  "key": {"[1]": {"assay": "Screening of amount of pH regulator: dissolution in intermediate solutions", "format": "physicochemical", "details": "0.5% sodium citrate solution after mannitol was added and CR19213 was dissolved", "experimental": "The solubility of CR19213 is related to the pH value of a solution, and the amount of the pH regulator (expressed as the concentration of a buffer salt) directly influences the pH value of the solution. Therefore, the concentration of the buffer salt needs to be screened. Since CR19213 was added to the sodium citrate solution with pH 7.0, and completely dissolved to form an acidic solution, a 1.0% sodium citrate solution (11.4 mg/mL) with pH 7.5 (regulated with citric acid) was prepared in order to make the finished product be more near-neutral, and diluted with water to obtain sodium citrate solutions at concentrations of 0.1%, 0.25%, and 0.5%, respectively. Intermediate solutions were prepared using the above-mentioned sodium citrate solutions with different concentrations. The dissolution in the intermediate solutions during the preparation were investigated.\n(1) a 1.0% sodium citrate solution with pH 7.5 (regulated with citric acid) was prepared for later use;\n(2) dilution was carried out with water to obtain 0.1%, 0.25% and 0.5% sodium citrate solutions, respectively;\n(3) a prescribed amount of mannitol was weighed, 70% of the total amount of the sodium citrate solution was added, stirring was carried out for dissolution, then a prescribed amount of CR19213 was added, and stirring was carried out for dissolution in a dark place at room temperature; and […]"}, "[2]": {"assay": "Stated solubility and sensitivity of CR19213"}},
  "data": [
    {"molecule": "CCC(C)C(C(CC(=O)N1CCCC1C(OC)C(C)C(=O)NC(C)C(O)c1ccccc1)OC)N(C)C(=O)C(NC(=O)C(C(C)C)N(C)C(=O)OCc1ccc(NC(=O)C(CCCNC(N)=O)NC(=O)C(NC(=O)CCCCCN2C(=O)CC(SCC(NC(=O)C(CCCCN)NC(=O)C(CC(=O)O)NC(=O)C(CC(=O)O)NC(=O)Cc3ccc(CNC(=O)NCCCCC(NC(=O)NC(CCC(=O)O)C(=O)O)C(=O)O)cc3)C(=O)NC(CCCCNC(=O)CCC(NC(=O)c3ccc(NCc4cnc5[nH]c(N)nc(=O)c5n4)cc3)C(=O)O)C(N)=O)C2=O)C(C)C)cc1)C(C)C", "note": "(stereo not drawn) [CR19213]", "values": [
      {"measurement": "pH value", "setting": "[1]", "value": 5.95},
      {"measurement": "Oxidation in solution", "setting": "[2]", "value": "easily oxidized"},
      {"measurement": "Sensitivity to temperature", "setting": "[2]", "value": "sensitive"},
      {"measurement": "Solubility in water", "setting": "[2]", "value": "poorly soluble"},
      {"measurement": "Stability to acids and alkalis", "setting": "[2]", "value": "unstable"},
      {"measurement": "Sensitivity to illumination", "setting": "[2]; raw material", "value": "sensitive"}
    ]}
  ]
}
